Patent JP2013242308A

Target: テネイシンC (human) (UniProt P24821)
Experiment: SPR (Biacore 2000)

Kd: 40 nM
B1: 抗TNC−4F10のscFvフラグメント(scFv 4F10) (scFv, not shown: small tags and cut ends)
scFv: EVLLQQSGPELVKPGASVKIPCKASGYTFTDYNMDWMKQSHGKSLEWIGDINPKSGNSIYNQKFKGKATLTVDKSSSTAYMELRSLTSEDTAVYYCAGRDWSAWFAFWGQGTLVSVSAGGGGSGGGGSGGGGSDVVMTQTPLTLSVIIGQPASISCKSSQSLLYSNGKTYLNWLLQRPGQSPKRLIYLVSKLDSGVPDRFTGSGSGTDFTLKISRVEAEDLGDYYCVQTTHFPWTFGGGTKLEIKDYKDDDDK
